In article PMC6273887, “cDNA Isolation and Functional Characterization of UDP-D-glucuronic Acid 4-Epimerase Family from Ornithogalum caudatum” (Molecules, 2016):

Substrate: O=C(O)[C@H]1O[C@H](OP(=O)(O)OP(=O)(O)OC[C@H]2O[C@@H](n3ccc(=O)[nH]c3=O)[C@H](O)[C@@H]2O)[C@H](O)[C@@H](O)[C@@H]1O
Experiment: HPLC of UDP-GalA formation, Lineweaver-Burk plot
Format: biochemical, Albuca bracteata
Conditions: 100 mM PBS, pH 7.8, 37 °C, 20 min, 0.156-10 mM UDP-GlcA, unpurified Pichia supernatant, substrate misprinted UDP-D-Glc, UDP-GlcA in b32 and b56

B1: OcUGlcAE3 (Albuca bracteata) (protein)
chain: MDAMISPSTPGKFKPEKPHHHLHHHHHRPLFRLQHSPLFKCGLIVVCASVVVVLLLCLAPSHPSSSSSSSSSPFAASRIERRSLSASSSSSWGGAEWEKRVRYSARIRRVGGFSVLVTGAGGFVGTHVSAALKRRGDGVLGLDCFNDYYEPSLKRARQALLDRIGVFVVEGDINDGPLLRKLFDVVPFTHVMHLAAQAGVRYAMKNPASYVHSNIAGLVTLLEACKSADPQPAVVWASSSSVYGLNTKVPFSEFHRTDRPASLYAATKKAGEEIAHTYNHIYGLSITGLRFFTVYGPWGRPDMAYFFFTNDLLNGKPITIFEGPKGESVARDFTYIDDIVQGCIGALDTAKKSTGTGGKKRGPAQLRVYNLGNTSPVPVTELVTILERLLKVKANKKVVKMPANGDVQFTHANISLAQRELGYHPTTDLKTGLKRFVRWYIEYYNPPGVASLTKKSARSNSS
notes: full-length ORF (1389 bp); 12,000 g/160,000 g lysate supernatant, unpurified
  Km: 170 ± 70 µM
